Data taken from patent publication US20230002480A1.

Tests used:
Experiment in all cases: cell-based or functional assay
[1] = target: HIV-1 Env of pseudovirus T250-4 (HIV-1)
[2] = target: HIV-1 Env of pseudovirus 263-8 (HIV-1)
[3] = target: HIV-1 Env of pseudovirus 3365.v2.c2 (HIV-1)
[4] = target: HIV-1 Env of pseudovirus ZM233M.PB6 (HIV-1)
[5] = target: HIV-1 Env of pseudovirus 1012_11_TC21_3257 (HIV-1)
[6] = target: HIV-1 Env of pseudovirus TRJO4551.58 (HIV-1)
[7] = target: HIV-1 Env of pseudovirus HIV-0013095-2.11 (HIV-1)
[8] = target: HIV-1 Env of pseudovirus 9004SS_A3_4 (HIV-1)
[9] = target: HIV-1 Env of pseudovirus Ce1086_B2 (HIV-1)
[10] = target: HIV-1 Env of pseudovirus CNE19 (HIV-1)
[11] = target: HIV-1 Env of pseudovirus ZM197M.PB7 (HIV-1)
[12] = target: HIV-1 Env of pseudovirus 1056_10_TA11_1826 (HIV-1)
[13] = target: HIV-1 Env of pseudovirus 1006_11_C3_1601 (HIV-1)
[14] = target: HIV-1 Env of pseudovirus CNE53 (HIV-1)
[15] = target: HIV-1 Env of pseudovirus Q23.17 (HIV-1)
[16] = target: HIV-1 Env of pseudovirus 928-28 (HIV-1)
[17] = target: HIV-1 Env of pseudovirus PVO.4 (HIV-1)
[18] = target: HIV-1 Env of pseudovirus 191084 B7-19 (HIV-1)
[19] = target: HIV-1 Env of pseudovirus QH0692.42 (HIV-1)
[20] = target: HIV-1 Env of pseudovirus ZM53M.PB12 (HIV-1)
[21] = target: HIV-1 Env of pseudovirus 249M B10 (HIV-1)
[22] = target: HIV-1 Env of pseudovirus SC05_8C11_2344 (HIV-1)
[23] = target: HIV-1 Env of pseudovirus HIV-16055-2.3 (HIV-1)
[24] = target: HIV-1 Env of pseudovirus ZM135M.PL10a (HIV-1)

## 10-1074 (antibody)
[1]
  IC50, titer in TZM.bl cells: < 0.001 µg/mL
  IC80, titer in TZM.bl cells: 0.005 µg/mL
[2]
  IC50, titer in TZM.bl cells: 0.666 µg/mL
  IC80, titer in TZM.bl cells: 6.53 µg/mL
[3]
  IC50, titer in TZM.bl cells: 0.131 µg/mL
  IC80, titer in TZM.bl cells: 0.45 µg/mL
[4]
  IC50, titer in TZM.bl cells: 0.06 µg/mL
  IC80, titer in TZM.bl cells: 0.349 µg/mL
[5]
  IC50, titer in TZM.bl cells: 0.008 µg/mL
  IC80, titer in TZM.bl cells: 0.059 µg/mL
[6]
  IC50, titer in TZM.bl cells: 0.17 µg/mL
  IC80, titer in TZM.bl cells: 0.634 µg/mL
[7]
  IC50, titer in TZM.bl cells: > 50 µg/mL
  IC80, titer in TZM.bl cells: > 50 µg/mL
[8]
  IC50, titer in TZM.bl cells: 0.011 µg/mL
  IC80, titer in TZM.bl cells: 0.03 µg/mL
[9]
  IC50, titer in TZM.bl cells: > 50 µg/mL
  IC80, titer in TZM.bl cells: > 50 µg/mL
[10]
  IC50, titer in TZM.bl cells: 50 µg/mL
  IC80, titer in TZM.bl cells: > 50 µg/mL
[11]
  IC50, titer in TZM.bl cells: > 50 µg/mL
  IC80, titer in TZM.bl cells: > 50 µg/mL
[12]
  IC50, titer in TZM.bl cells: 0.038 µg/mL
  IC80, titer in TZM.bl cells: 0.272 µg/mL
[13]
  IC50, titer in TZM.bl cells: 0.003 µg/mL
  IC80, titer in TZM.bl cells: 0.013 µg/mL
[14]
  IC50, titer in TZM.bl cells: 0.039 µg/mL
  IC80, titer in TZM.bl cells: 0.141 µg/mL
[15]
  IC50, titer in TZM.bl cells: 0.006 µg/mL
  IC80, titer in TZM.bl cells: 0.021 µg/mL
[16]
  IC50, titer in TZM.bl cells: 0.847 µg/mL
  IC80, titer in TZM.bl cells: 4.7 µg/mL
[17]
  IC50, titer in TZM.bl cells: 0.074 µg/mL
  IC80, titer in TZM.bl cells: 0.36 µg/mL
[18]
  IC50, titer in TZM.bl cells: 0.032 µg/mL
  IC80, titer in TZM.bl cells: 0.128 µg/mL
[19]
  IC50, titer in TZM.bl cells: 0.191 µg/mL
  IC80, titer in TZM.bl cells: 0.929 µg/mL
[20]
  IC50, titer in TZM.bl cells: > 50 µg/mL
  IC80, titer in TZM.bl cells: > 50 µg/mL
[21]
  IC50, titer in TZM.bl cells: > 50 µg/mL
  IC80, titer in TZM.bl cells: > 50 µg/mL
[22]
  IC50, titer in TZM.bl cells: 0.052 µg/mL
  IC80, titer in TZM.bl cells: 0.123 µg/mL
[23]
  IC50, titer in TZM.bl cells: > 50 µg/mL
  IC80, titer in TZM.bl cells: > 50 µg/mL
[24]
  IC50, titer in TZM.bl cells: 0.069 µg/mL
  IC80, titer in TZM.bl cells: 0.367 µg/mL

## PG16 (antibody)
[1]
  IC50, titer in TZM.bl cells: 0.002 µg/mL
  IC80, titer in TZM.bl cells: 0.005 µg/mL
[2]
  IC50, titer in TZM.bl cells: 0.347 µg/mL
  IC80, titer in TZM.bl cells: 4.97 µg/mL
[4]
  IC50, titer in TZM.bl cells: 0.002 µg/mL
  IC80, titer in TZM.bl cells: 0.006 µg/mL
[5]
  IC50, titer in TZM.bl cells: 0.03 µg/mL
  IC80, titer in TZM.bl cells: 0.219 µg/mL
[6]
  IC50, titer in TZM.bl cells: 1.01 µg/mL
  IC80, titer in TZM.bl cells: 24.5 µg/mL
[7]
  IC50, titer in TZM.bl cells: 0.002 µg/mL
  IC80, titer in TZM.bl cells: 0.006 µg/mL
[8]
  IC50, titer in TZM.bl cells: 0.02 µg/mL
  IC80, titer in TZM.bl cells: 0.111 µg/mL
[9]
  IC50, titer in TZM.bl cells: > 50 µg/mL
  IC80, titer in TZM.bl cells: > 50 µg/mL
[10]
  IC50, titer in TZM.bl cells: 0.024 µg/mL
  IC80, titer in TZM.bl cells: 3.07 µg/mL
[11]
  IC50, titer in TZM.bl cells: 1.5 µg/mL
  IC80, titer in TZM.bl cells: 22.8 µg/mL
[12]
  IC50, titer in TZM.bl cells: 0.315 µg/mL
  IC80, titer in TZM.bl cells: 1.95 µg/mL
[13]
  IC50, titer in TZM.bl cells: > 50 µg/mL
  IC80, titer in TZM.bl cells: > 50 µg/mL
[14]
  IC50, titer in TZM.bl cells: > 50 µg/mL
  IC80, titer in TZM.bl cells: > 50 µg/mL
[15]
  IC50, titer in TZM.bl cells: 0.008 µg/mL
  IC80, titer in TZM.bl cells: 0.043 µg/mL
[16]
  IC50, titer in TZM.bl cells: 0.034 µg/mL
  IC80, titer in TZM.bl cells: 0.237 µg/mL
[17]
  IC50, titer in TZM.bl cells: 15.3 µg/mL
  IC80, titer in TZM.bl cells: > 50 µg/mL
[18]
  IC50, titer in TZM.bl cells: 0.024 µg/mL
  IC80, titer in TZM.bl cells: 0.238 µg/mL
[19]
  IC50, titer in TZM.bl cells: > 50 µg/mL
  IC80, titer in TZM.bl cells: > 50 µg/mL
[20]
  IC50, titer in TZM.bl cells: 0.007 µg/mL
  IC80, titer in TZM.bl cells: 0.051 µg/mL
[21]
  IC50, titer in TZM.bl cells: 0.026 µg/mL
  IC80, titer in TZM.bl cells: 1.25 µg/mL
[22]
  IC50, titer in TZM.bl cells: 0.07 µg/mL
  IC80, titer in TZM.bl cells: 1.62 µg/mL
[23]
  IC50, titer in TZM.bl cells: 0.17 µg/mL
  IC80, titer in TZM.bl cells: > 0.25 µg/mL
[24]
  IC50, titer in TZM.bl cells: > 50 µg/mL
  IC80, titer in TZM.bl cells: > 50 µg/mL
